We go through 1 molecule from patent US20100129315A1 (published 2010).

This test addresses human MN protein, entire extra-cellular domain with a C-terminal histag, expressed in HKB-11 cells (human, UniProt Q16790 38-414). The test is described as follows: BIAcore; crude Fab.

B1: 5aa3 Crude Fab (antibody, V domains shown)
VH: ELVQSGAEVKKPGESLKISCKGSGYSFTGYISWVRQAPGKGLEWMGIIYPGDSYTNYSPSFQGQVTISADKSISTAYLQWSSLKASDTAMYYCARYSGPNWDVMDSWGQGTLVTVSS
VL: DIVLTQPPSVSGAPGQRVTISCSGSSSNIGSYYVNWYQQLPGTAPKLLIYADDKRPSGVPDRFSGSKSGTSASLAITGLQSEDEADYYCQSYDSTKDDSVFGGGTKL
Regarding B1, the Kd came to 25 nM.

By Kd is commonly meant a measure of binding affinity in units of concentration. Lower therefore signals higher affinity.
